Each block holds one molecule with its values, some of them ahead of it.
B4: Full-length human Geminin (natural protein, UniProt O75496 1-209, looked up)
chain: MNPSMKQKQEEIKENIKNSSVPRRTLKMIQPSASGSLVGRENELSAGLSKRKHRNDHLTSTTSSPGVIVPESSENKNLGGVTQESFDLMIKENPSSQYWKEVAEKRRKALYEALKENEKLHKEIEQKDNEIARLKKENKELAEVAEHVQYMAELIERLNGEPLDNFESLDNQEFDSEEETVEDSLVEDSEIGTCAEGTVSSSTDAKPCI
notes: Geminin, human, full length, cloned into pET22b; pET22b can add a C-terminal His tag (surmise); also called full length Geminin; source: E. coli Rosetta 2 (DE3), purified (Ni-NTA IMAC, SEC)

Experiments:
[1] = biological target: CDT1 (Homo sapiens) (UniProt Q9H211); details: cited from earlier work
[2] = biological target: T1, CDT1 (Homo sapiens, UniProt Q9H211); test: SPR inhibition of Geminin binding to immobilized CDT1; AlphaScreen IC50 […]; FRET in MCF7 cells
T1 construct: tCDT1 (residues 158–356); also miniCDT1 (residues 158–396); with Geminin
T1 sequence (Q9H211 158-356): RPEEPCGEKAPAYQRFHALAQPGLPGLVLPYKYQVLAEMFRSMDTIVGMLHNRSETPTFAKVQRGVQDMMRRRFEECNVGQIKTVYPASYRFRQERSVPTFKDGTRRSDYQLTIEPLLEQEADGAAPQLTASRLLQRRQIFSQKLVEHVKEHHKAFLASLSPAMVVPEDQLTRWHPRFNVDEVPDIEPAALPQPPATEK
T1 sequence (O75496 1-209 partner): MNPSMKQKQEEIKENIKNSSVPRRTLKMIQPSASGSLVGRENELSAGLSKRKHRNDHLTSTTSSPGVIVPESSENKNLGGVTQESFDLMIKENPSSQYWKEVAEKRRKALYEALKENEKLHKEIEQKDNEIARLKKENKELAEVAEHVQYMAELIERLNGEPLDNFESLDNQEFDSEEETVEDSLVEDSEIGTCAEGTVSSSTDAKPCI

[3] = biological target: T2, His-tagged human CDT1^158-396 Y170A (miniCDT1Y170A) (human, UniProt Q9H211 158-396, Y170A); test: AlphaScreen or HTRF; HTS format and its optimisation (titration, data not shown): Flag-ΔDBGeminin/His6-miniCDT1Y170A complex 200-400 nM (300 nM in the screen), 10 μg/ml streptavidin Donor and nickel-chelate Acceptor beads, 25 nM biotinylated anti-Flag antibody; 25 mM Hepes pH 7.4, 100 mM NaCl, 0.2% BSA; details: both partners purified
T2 construct: CDT1, human, residues 158-396 with Y170A, cloned into pET28a; also called His6-tagged miniCDT1^Y170A; source: E. coli Rosetta 2 (DE3), expressed alone or co-expressed with ΔDBGeminin, purified (Ni-NTA IMAC, SEC); not shown: His6, N-terminal, kept
T2 sequence (looked up): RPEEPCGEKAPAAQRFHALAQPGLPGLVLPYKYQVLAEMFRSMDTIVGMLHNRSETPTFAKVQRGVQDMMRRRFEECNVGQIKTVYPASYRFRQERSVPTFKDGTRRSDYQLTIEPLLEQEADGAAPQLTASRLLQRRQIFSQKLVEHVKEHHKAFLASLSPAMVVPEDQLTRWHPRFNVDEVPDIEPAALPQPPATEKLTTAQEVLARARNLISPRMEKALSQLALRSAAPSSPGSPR

[4] = biological target: T3, His-tagged human CDT1^158-396 F173A (miniCDT1F173A) (human, UniProt Q9H211 158-396, F173A); test: AlphaScreen or HTRF; competition: Flag-ΔDBGeminin/His6-miniCDT1 mutant complex at 50 nM, streptavidin Donor beads with biotinylated anti-Flag antibody, nickel-chelate Acceptor beads; increasing untagged ΔDBGeminin; 25 mM Hepes pH 7.4, 100 mM NaCl, 0.1% BSA; 1.5 h at RT; details: both partners purified
T3 construct: CDT1, human, residues 158-396 with F173A, cloned into pET28a; source: E. coli Rosetta 2 (DE3), expressed alone or co-expressed with ΔDBGeminin, purified (Ni-NTA IMAC, SEC); not shown: His6, N-terminal, kept
T3 sequence (looked up): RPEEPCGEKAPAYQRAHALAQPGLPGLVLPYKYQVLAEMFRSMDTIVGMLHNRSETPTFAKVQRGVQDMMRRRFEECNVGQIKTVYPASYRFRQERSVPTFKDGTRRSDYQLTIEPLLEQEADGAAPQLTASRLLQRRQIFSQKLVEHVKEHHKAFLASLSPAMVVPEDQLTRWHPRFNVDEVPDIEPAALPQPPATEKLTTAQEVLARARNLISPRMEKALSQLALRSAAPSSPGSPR

[5] = biological target: T4, His-tagged human CDT1^158-396 L176A (miniCDT1L176A) (human, UniProt Q9H211 158-396, L176A); test: as above; details: both partners purified
T4 construct: CDT1, human, residues 158-396 with L176A, cloned into pET28a; Could not be isolated on its own (limited solubility); used only as complex with ΔDBGeminin; source: E. coli Rosetta 2 (DE3), co-expressed with ΔDBGeminin, co-purified (Ni-NTA IMAC, SEC)
T4 sequence (looked up): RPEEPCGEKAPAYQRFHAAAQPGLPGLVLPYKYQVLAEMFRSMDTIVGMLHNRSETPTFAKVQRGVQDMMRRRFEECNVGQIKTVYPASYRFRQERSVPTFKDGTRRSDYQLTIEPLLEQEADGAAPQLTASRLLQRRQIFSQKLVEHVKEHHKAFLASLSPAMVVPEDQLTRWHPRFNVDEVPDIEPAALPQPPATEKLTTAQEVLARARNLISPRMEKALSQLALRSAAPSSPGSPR

[6] = biological target: B4; test: SPR; Biacore T100, 25°C; tCDT1 (about 6.000 RU) or miniCDT1 covalently immobilised on a CM5 chip (amine coupling, pH 5.5); Geminin 12-966 nM with AF615 at 10 μM, 100 μM, 1 mM (20% DMSO); 20 mM Hepes pH 7.5, 200 mM NaCl, Tween 20 0.01%, 30 μl/min; details: both partners purified
[7] = biological target: T3, His-tagged human CDT1^158-396 F173A …; test: SPR; Biacore T100, 25°C; about 5.000 RU of miniCDT1 variants held on a Ni NTA chip via N-terminal His-tag; full-length Geminin injected at 1-100 nM; 20 mM Tris pH 7.5, 200 mM NaCl, 30 μl/min; details: both partners purified
[8] = biological target: T2, His-tagged human CDT1^158-396 Y170A …; test: as above; details: both partners purified
[9] = biological target: T5, His-tagged human CDT1^158-396 (miniCDT1), wild type (human, UniProt Q9H211 158-396); test: as above; details: both partners purified
T5 construct: CDT1, human, residues 158-396 (miniCDT1); plasmid described in De Marco et al., 2009; also called His6-tagged miniCDT1; source: E. coli Rosetta 2 (DE3), expressed alone or co-expressed with Geminin variants, purified (Ni-NTA IMAC, SEC); not shown: His6, N-terminal, kept
T5 sequence (looked up): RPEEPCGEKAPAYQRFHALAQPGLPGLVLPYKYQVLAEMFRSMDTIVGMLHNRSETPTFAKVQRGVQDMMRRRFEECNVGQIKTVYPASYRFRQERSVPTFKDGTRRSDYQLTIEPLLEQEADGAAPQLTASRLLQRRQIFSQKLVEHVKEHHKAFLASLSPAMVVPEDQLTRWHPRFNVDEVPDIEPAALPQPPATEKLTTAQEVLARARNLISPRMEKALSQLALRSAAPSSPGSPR

[10] = biological target: T6, CDT1-GFP (UniProt Q9H211 1-546); test: FRET or BRET; sensitized emission FRET in fixed MCF7 cells stably expressing CDT1-GFP (or GFP-NLS as control), transiently transfected with Geminin-dHcRed; with DMSO or AF615 at 11, 33, 100 μM for 24 h; details: partners not purified
T6 construct: CDT1 fused to GFP; plasmid and cell line from Xouri et al., 2007; also called MCF7 CDT1-GFP; source: MCF7 cells stably expressing CDT1-GFP, in fixed cells
T6 sequence (looked up): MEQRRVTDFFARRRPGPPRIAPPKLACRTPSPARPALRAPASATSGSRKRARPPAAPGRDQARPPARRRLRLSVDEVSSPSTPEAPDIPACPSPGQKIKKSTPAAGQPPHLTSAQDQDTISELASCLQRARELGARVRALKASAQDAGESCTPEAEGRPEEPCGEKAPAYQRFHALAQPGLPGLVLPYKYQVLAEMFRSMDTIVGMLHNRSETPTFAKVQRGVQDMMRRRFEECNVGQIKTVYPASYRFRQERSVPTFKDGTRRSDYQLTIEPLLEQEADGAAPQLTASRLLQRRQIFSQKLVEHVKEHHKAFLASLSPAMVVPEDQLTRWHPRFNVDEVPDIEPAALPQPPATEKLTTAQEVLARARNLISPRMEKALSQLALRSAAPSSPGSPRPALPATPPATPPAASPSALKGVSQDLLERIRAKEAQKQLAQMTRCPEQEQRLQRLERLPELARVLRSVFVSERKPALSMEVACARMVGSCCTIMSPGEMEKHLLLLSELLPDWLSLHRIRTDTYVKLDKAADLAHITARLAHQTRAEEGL

Molecule: Geminin (from UniProt O75496)
- Kd [1]: 0.0044 µM

- Ki [2]: 0.37 µM
Molecule: O=C(NNC(=S)N1CCOCC1)c1cnccn1 [AF615]

- AlphaScreen signal-to-background ratio [3]: > 20 fold
B1: Flag-tagged Geminin^28-209 (ΔDBGeminin) (domain or fragment, human, UniProt O75496 28-209, looked up)
chain: MIQPSASGSLVGRENELSAGLSKRKHRNDHLTSTTSSPGVIVPESSENKNLGGVTQESFDLMIKENPSSQYWKEVAEKRRKALYEALKENEKLHKEIEQKDNEIARLKKENKELAEVAEHVQYMAELIERLNGEPLDNFESLDNQEFDSEEETVEDSLVEDSEIGTCAEGTVSSSTDAKPCI
notes: Geminin, human, residues 28-209 (lacks the N-terminal stretch with the destruction box), cloned into pET22b; also called Flag-tagged ΔDBGeminin; source: E. coli Rosetta 2 (DE3), co-expressed with miniCDT1 variants, co-purified (Ni-NTA IMAC, SEC)

- excess of untagged ΔDBGeminin needed for a similar signal reduction [4]: 10 fold
- excess of untagged ΔDBGeminin needed for a similar signal reduction [5]: 100 fold
B2: untagged ΔDBGeminin (domain or fragment, human, UniProt O75496 28-209, looked up)
chain: MIQPSASGSLVGRENELSAGLSKRKHRNDHLTSTTSSPGVIVPESSENKNLGGVTQESFDLMIKENPSSQYWKEVAEKRRKALYEALKENEKLHKEIEQKDNEIARLKKENKELAEVAEHVQYMAELIERLNGEPLDNFESLDNQEFDSEEETVEDSLVEDSEIGTCAEGTVSSSTDAKPCI
notes: Geminin, human, residues 28-209 (ΔDBGeminin), without the Flag tag; also called untagged ΔDBGeminin (Geminin 28-209)

- binding result [6]: binds
B3: His-tagged human CDT1^158-356 (tCDT1) (domain or fragment, UniProt Q9H211 158-356, looked up)
chain: RPEEPCGEKAPAYQRFHALAQPGLPGLVLPYKYQVLAEMFRSMDTIVGMLHNRSETPTFAKVQRGVQDMMRRRFEECNVGQIKTVYPASYRFRQERSVPTFKDGTRRSDYQLTIEPLLEQEADGAAPQLTASRLLQRRQIFSQKLVEHVKEHHKAFLASLSPAMVVPEDQLTRWHPRFNVDEVPDIEPAALPQPPATEK
notes: CDT1, human, residues 158-356 (tCDT1); plasmid described in De Marco et al., 2009; source: E. coli Rosetta 2 (DE3), purified (Ni-NTA IMAC, SEC)

Molecule: B4
- Kd [7]: 0.025 µM
- Kd [8]: 0.041 µM
- Kd [9]: 0.0094 µM

B5: Geminin-dHcRed (natural protein, UniProt O75496 1-209, looked up)
chain: MNPSMKQKQEEIKENIKNSSVPRRTLKMIQPSASGSLVGRENELSAGLSKRKHRNDHLTSTTSSPGVIVPESSENKNLGGVTQESFDLMIKENPSSQYWKEVAEKRRKALYEALKENEKLHKEIEQKDNEIARLKKENKELAEVAEHVQYMAELIERLNGEPLDNFESLDNQEFDSEEETVEDSLVEDSEIGTCAEGTVSSSTDAKPCI
notes: Geminin fused to dHcRed; plasmid from Xouri et al., 2007; source: MCF7 cells, transiently transfected, in fixed cells
- FRET mean intensity against cells expressing GFP-NLS and Geminin-dHcRed [10]: ~3 fold

From paper PMC9083542, “Small Molecule Inhibitor Targeting CDT1/Geminin Protein Complex Promotes DNA Damage and Cell Death in Cancer Cells” (Frontiers in Pharmacology, 2022)
